The record followed here is the supplement of paper PMC10126150.

± gives the standard deviation of the averaged measurements.

The subject of this data set is ATP. The experiment in a line: switch fluorescence ratio, 500 uM ATP over buffer (Cy3 cluster intensity, sum of 5 cycles each) (fold (ratio)); higher = stronger signal-on switching upon ATP binding; sequences stand for … in TCGTCGGCAGCGTCAGATGTGTATAAGAGACAGTTTTTTTTTTTTTTTTTTTTTTTTT…TC. The following applies: aptamer strand: ATP DNA aptamer (quencher-CACCTGGGGGAGTATTGCGGAGGAAGG + anchor), 100 nM annealed; ATP concentration: 500 uM. Summed up:
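The quencher-labelled ATP aptamer, at 100 nM, was annealed to Cy3-labelled switching-strand clusters on a modified Illumina MiSeq flow-cell. The clusters were imaged in selection buffer, then after 15 min with 500 uM ATP at 22 °C, and this buffer/ATP cycle ran five times with NaOH stripping and re-annealing between runs. Per-cluster fluorescence ratios, summed target-cycle over summed buffer-cycle Cy3 intensity, were averaged per switch-domain sequence. Clusters outside 100-1000 RFU were excluded.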
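Note: ATP exposure 15 min at 22 °C before imaging.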

With TTATAAGCGA, the switch fluorescence ratio stood at 1.02 ± 0.035. To AAATAACTAC belongs 1.08 ± 0.015; to GGGGCGTCAG, 0.97 ± 0.013. To GGCCTCGGGG belongs 1.01 ± 0.05; to AGTTTAGGAC, 0.985 ± 0.031.

Take TTTGGATCGT: the switch fluorescence ratio was determined as 0.981 ± 0.025. To AGGTTAATTG belongs 0.9909 ± 0.0072. To CGGAGGAGCA belongs 0.968 ± 0.061; to AAGGGGGGGC, 0.998 ± 0.062; to TTTTAAACAT, 1.11 ± 0.09. Regarding GAGAAAATTT, the switch fluorescence ratio was 0.989 ± 0.043.

For the sequence AAACATTTCA, the switch fluorescence ratio stood at 0.976 ± 0.063.

Take TTTTCCTCTT: the switch fluorescence ratio stood at 1.02 ± 0.014. Consider GCTTAAATCT, for which the switch fluorescence ratio is 1.01 ± 0.029. The figure for ATGATGAATA is 0.949 ± 0.017. Take TTATGTTTTT: the switch fluorescence ratio worked out at 1.01 ± 0.025. Regarding AAGCGGTGAG, the switch fluorescence ratio was 0.989 ± 0.031.

Consider GATAGGTGCC, for which the switch fluorescence ratio is 1.002 ± 0.0027. To CAAATGGGAA belongs 0.99 ± 0.016; to AATGTTAGGC, 1.02 ± 0.034; to TTAAAATGAG, 0.9972 ± 0.006. To CTGGGGAGGA belongs 0.997 ± 0.028; to ATTGTTTCCT, 1.06 ± 0.039; to TACAAGCTTT, 0.992 ± 0.024. The figure for AATAAAGGAT is 1 ± 0.017.

Take ATGCACTGCT: the switch fluorescence ratio came to 1.04 ± 0.021.

For GTGCTTAGGA, the switch fluorescence ratio was determined as 0.957 ± 0.029. To TATCAAATTG belongs 1.02 ± 0.025; to ACTGAGGGTA, 1.04 ± 0.027. To CGGCTTGGTG belongs 0.996 ± 0.048; to GGGATTTAGG, 0.997 ± 0.035. Take TTATGTGACT: the switch fluorescence ratio was found to be 1.01 ± 0.021.

Turning to GTGAAAGGAG, the switch fluorescence ratio stood at 0.997 ± 0.039.

As to GACTTATCCT, the switch fluorescence ratio was 1.054 ± 0.004. The figure for TGGGAGAAAG is 0.999 ± 0.024; for CTGGGGCAGA it is 1.02 ± 0.011; for GCCGCCAGGG it is 1.26 ± 0.068.

Consider AACCTTTTGG, for which the switch fluorescence ratio was determined as 1.03 ± 0.048.

As to GTGGGACCTT, the switch fluorescence ratio was found to be 1.06 ± 0.069. The figure for TTAAACTTAG is 0.992 ± 0.03; for TCATTGGTAA it is 0.977 ± 0.047; for GGGTTTTATG it is 0.991 ± 0.033.

For the sequence AGACGGGGGT, the switch fluorescence ratio was determined as 0.997 ± 0.028. In the case of GAGCTTCTTG, the switch fluorescence ratio was 1.017 ± 0.0063.

On to GCTTGTTGTA, for which the switch fluorescence ratio stood at 0.998 ± 0.015.

TCTTTATATT: the switch fluorescence ratio came to 1.02 ± 0.048. Turning to CTCTGAGGTT, the switch fluorescence ratio is 1 ± 0.035. Take AAGGGGAAAG: the switch fluorescence ratio came out at 0.998 ± 0.025.

For the sequence TAATTCCCGT, the switch fluorescence ratio turned out to be 1.01 ± 0.036. Turning to TTCAGCTTTT, the switch fluorescence ratio was 0.984 ± 0.037. To TTGGGCGCAT belongs 0.99 ± 0.025; to ATTGAGGGGA, 0.994 ± 0.032. The figure for GGTGCATGGT is 1.05 ± 0.011. The figure for GGGGGGATCA is 0.985 ± 0.026. On to TAGTACTAGA, for which the switch fluorescence ratio is 1.03 ± 0.02. To ATTATGGCAC belongs 1.01 ± 0.0041; to TTTTTGGCTG, 0.9818 ± 0.0049.

For GAAGGTGCGA, the switch fluorescence ratio amounted to 1.15 ± 0.052.

AACAGGGGGA: the switch fluorescence ratio stood at 1.09 ± 0.14.

As to CACAAGGGCC, the switch fluorescence ratio came out at 1.03 ± 0.018. The figure for TTTCATGTGG is 0.995 ± 0.044. To CCCGGTATTG belongs 1.017 ± 0.007; to CGTTCCGGGT, 1.02 ± 0.036. The figure for TAGGCGTCTG is 1 ± 0.012; for TAGTGTTGGT it is 0.975 ± 0.016; for AGTCCGGGAG it is 1.02 ± 0.026.
